From patent publication US20210380653A1

Molecular target: DR5 receptor (TRAIL-R2, TNFRSF10B) (human) (UniProt O14763)
Assay: cell-based or functional assay

Sequence of DR5 receptor (TRAIL-R2, TNFRSF10B) (human) (O14763 56-440): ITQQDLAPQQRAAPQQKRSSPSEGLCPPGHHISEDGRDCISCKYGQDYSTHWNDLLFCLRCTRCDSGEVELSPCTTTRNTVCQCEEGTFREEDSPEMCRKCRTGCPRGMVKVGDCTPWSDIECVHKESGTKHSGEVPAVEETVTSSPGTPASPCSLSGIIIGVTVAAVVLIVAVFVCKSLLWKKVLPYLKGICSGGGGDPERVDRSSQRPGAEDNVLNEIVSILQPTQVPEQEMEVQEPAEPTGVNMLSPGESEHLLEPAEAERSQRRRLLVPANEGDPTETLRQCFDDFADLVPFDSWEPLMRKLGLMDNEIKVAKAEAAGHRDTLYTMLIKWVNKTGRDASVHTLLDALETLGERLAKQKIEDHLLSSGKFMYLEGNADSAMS

TLY012 (PEGylated miLZ-TRAIL; PEGylated form of recombinant human TRAIL fused to a modified isoleucine zipper at the N-terminus) (ligand)
IC50, nM (cell viability / cytotoxicity, COLO-205 cells, CellTiter-Glo): 0.0155 nM
